The values that follow come from PMC10184913.

A word on the Km: it is the concentration of substrate that gives half-maximal velocity.

B1: GmC4H2 (Glycine max) (protein)
chain: MDLLLLEKTLIGLFLAAVVAIAVSTLRGRKFKLPPGPLPVPIFGNWLQVGDDLNHRNLTDLAKKFGDIFLLRMGQRNLVVVSSPELAKEVLHTQGVEFGSRTRNVVFDIFTGKGQDMVFTVYGEHWRKMRRIMTVPFFTNKVVQQYRHGWESEAAAVVEDVKKNPDAAVSGTVIRRRLQLMMYNNMYRIMFDRRFESEEDPIFQRLRALNGERSRLAQSFEYNYGDFIPILRPFLKGYLKICKEVKETRLKLFKDYFVDERKKLGSTKSTNNNNELKCAIDHILDAQRKGEINEDNVLYIVENINVAAIETTLWSIEWGIAELVNHPEIQQKLRDEIDRVLGAGHQVTEPDIQKLPYLQAVVKETLRLRMAIPLLVPHMNLHDAKLGGYDIPAESKILVNAWWLANNPAHWKKPEEFRPERFFEEESLVEANGNDFRYLPFGVGRRSCPGIILALPILGITLGRLVQNFELLPPPGQSQIDTSEKGGQFSLHILKHSTIVAKPRSF
B2: GmC4H20 (Glycine max) (protein)
chain: MGLQIKEPLLFTLVTISLISITKLLHSYFSIPFSPSNLSIAIATLIFVLISYKFSSSSIKHSSTTLPPGPLSVPIFGNWLQVGNDLNHRLLASMSQTYGPVFLLKLGSKNLVVVSDPELATQVLHAQGVEFGSRPRNVVFDIFTGNGQDMVFTVYGDHWRKMRRIMTLPFFTNKVVHNYSNMWEEEMDLVVRDLNVNERVRSEGIVIRRRLQLMLYNIMYRMMFDAKFESQEDPLFIQATRFNSERSRLAQSFEYNYGDFIPLLRPFLRGYLNKCKDLQSRRLAFFNTHYVEKRRQIMAANGEKHKISCAMDHIIDAQMKGEISEENVIYIVENINVAAIETTLWSIEWAVAELVNHPTVQSKIRDEISKVLKGEPVTESNLHELPYLQATVKETLRLHTPIPLLVPHMNLEEAKLGGHTVPKESKVVVNAWWLANNPSWWKNPEEFRPERFLEEECATDAVAGGKVDFRFVPFGVGRRSCPGIILALPILGLVIAKLVKSFQMSAPAGTKIDVSEKGGQFSLHIANHSTVLFHPIKTL
B3: GmC4H14 (Glycine max) (protein)
chain: MDLLLLEKTLIGLFLAAVVAIAVSTLRGRKFKLPPGPLPVPIFGNWLQVGDDLNHRNLTDLAKKFGDIFLLRMGQRNLVVVSSPELAKEVLHTQGVEFGSRTRNVVFDIFTGKGQDMVFTVYGEHWRKMRRIMTVPFFTNKVVQQYRHGWESEAAAVVEDVKNNPDAAVSGTVIRRRLQLMMYNNMYRIMFDRRFESEEDPIFQRLRALNGERSRLAQSFEYNYGDFIPILRPFLKGYLKICKEVKETRLKLFKDYFVDERKKLGSIKSSNNNELKCAIDHILDAQRKGEINEDNVLYIVENINVAAIETTLWSIEWGIAELVNHPEIQQKVRDEIDRVLEAGHQVTEPDIQKLPYLQAVVKETLRLRMAIPLLVPHMNLHDAKLGGYDIPAESKILVNAWWLANNPAHWKKPEEFRPERFLEEELHVEANGNDFRYLPFGVGRRSCPGIILALPILAITLGRLVQNFELLPPPGQSQIDTSEKGGQFSLHILKHSTIVAKPRSF

Substrate in the data set: O=C(O)/C=C/c1ccccc1
Put plainly: cells, lysate or membranes. Particulars: 1 mM NADPH, 50 mM phosphate pH 7.6, 25°C, co-expressed LjCPR1.
In the case of B1, the Km turned out to be 6.438 ± 0.74 µM.

B2: the Km was determined as 3.83 ± 0.44 µM.

For B3, the Km came out at 2.74 ± 0.18 µM.
